In article PMC9126983, “Structural insights into the mechanism of archaellar rotational switching” (Nature Communications, 2022):
Values joined by “and” are separate entries in the source; they are usually repeats but may differ in a detail not shown here. Equal values may be shown once. Values belong to the molecule of their own block, whether it stands above or below them.

B1: Methanococcus maripaludis CheY, activated with BeF3- (phosphorylated state mimicked) (natural protein, UniProt Q6LYQ5 1-123, looked up)
chain: MASIVKTMIVDDSAFMRNILKRILSTTNKYVVIGEAANGADAIKMAEELQPDLISMDIVMPETDGITATKAIKEKTPEIKIVMCTSVDQEQKMIDAVNAGADGYIVKPFQAPKILEQFNKLFP
modifications: BeF3- phosphomimic (2 mM BeF2 and 20 mM NaF in the buffer); phosphorylation site D57
notes: CheY of Methanococcus maripaludis; The same protein as m10, in buffer with 2 mM BeF2, 20 mM NaF and 20 mM MgCl2; also called CheY-P; source: E. coli BL21 (DE3), purified (Ni-NTA, SEC)
B2: GST-MmCheFCTD (domain or fragment)
chain: IKSLLPKSEDDLDSEMAVESWSGDKLKNEVEQLAPEEQEILTAIYTGITSLELPGMMGMDIDEVEKVLEKLIDQGFLDLVRIRKETDLTEKGRAVTNFIITNF
modifications: GST carrier left out; limits taken as the C-terminal 103 residues (246-348, F348 terminal) used in the CheY:CheFCTD fusion, exact limits are in Fig. S3a; fusion is mainly a dimer by mass photometry /
B3: GST-MmCheFCTD (domain or fragment)
chain: B2 chain

Columns and labels:
FliM FliMN peptide = FliM FliMN peptide (UniProt P06974); conditions: cited from earlier work
[1] = molecular target: FliM 1-249 (Thermotoga maritima) (UniProt Q9WZE6); conditions: cited from earlier work
Chain of FliM 1-249 (Thermotoga maritima) (Q9WZE6 1-249): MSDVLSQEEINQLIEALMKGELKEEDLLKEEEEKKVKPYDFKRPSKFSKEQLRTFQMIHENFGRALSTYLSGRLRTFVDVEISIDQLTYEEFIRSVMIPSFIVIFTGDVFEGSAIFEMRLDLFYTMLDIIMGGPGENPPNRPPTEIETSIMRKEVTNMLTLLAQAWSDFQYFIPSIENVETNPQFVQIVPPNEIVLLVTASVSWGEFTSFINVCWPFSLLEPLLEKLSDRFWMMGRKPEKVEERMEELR

[2] = molecular target: Methanococcus maripaludis CheF (Methanococcus maripaludis); test: mass photometry; OneMP mass photometer; protein stocks diluted in HEPES buffer; typical working concentrations of MmCheF 25–50 nM
[3] = molecular target: Pyrococcus horikoshii CheF (Pyrococcus horikoshii); test: as above
[4] = molecular target: Thermococcus kodakarensis CheF (Thermococcus kodakarensis); test: as above
GST-MmCheFCTD [5] = molecular target: B3; test: ITC; GST-MmCheFCTD (25 µM) in the sample cell, titrated with MmCheY; 25 °C; 20 mM HEPES-Na pH 7.5, 200 mM NaCl, 20 mM KCl, 20 mM MgCl2, 20 mM NaF, 2 mM BeF2; conditions: both partners purified
GST-MmCheFCTD [6] = molecular target: B3; test: mass photometry; OneMP mass photometer; protein stocks diluted in HEPES buffer; typical working concentrations of MmCheF 25–50 nM; conditions: both partners purified
[7] = molecular target: B1; test: ITC; GST-MmCheFCTD (25 µM) in the sample cell, titrated with MmCheY; 25 °C; 20 mM HEPES-Na pH 7.5, 200 mM NaCl, 20 mM KCl, 20 mM MgCl2, 20 mM NaF, 2 mM BeF2; conditions: both partners purified

Molecule: CheY (from UniProt P0AE67)
Kd (FliM FliMN peptide): 27000 nM

Molecule: CheY (from UniProt Q56312)
Kd [1]: 39 nM

stoichiometry N [2]: 2
Molecule: Methanococcus maripaludis CheF (natural protein)

percent of observations in the dimer species [3]: 89% | stoichiometry N [3]: 2
Molecule: Pyrococcus horikoshii CheF (natural protein)

stoichiometry N [4]: 2
Molecule: Thermococcus kodakarensis CheF (natural protein)

Molecule: B1
stoichiometry N (GST-MmCheFCTD [5]): 1

Molecule: B2
stoichiometry N (GST-MmCheFCTD [6]): 2 and 4

Molecule: B3
Kd [7]: 1240 ± 414 nM
